Results taken from paper PMC10591846.

Target: GST-Pirh2 (construct of Figures S5 and S12 not stated) (human) (UniProt Q96PM5)
Assay: AlphaScreen or HTRF

GST-Pirh2 (construct of Figures S5 and S12 not stated) (human), sequence (Q96PM5 whole entry): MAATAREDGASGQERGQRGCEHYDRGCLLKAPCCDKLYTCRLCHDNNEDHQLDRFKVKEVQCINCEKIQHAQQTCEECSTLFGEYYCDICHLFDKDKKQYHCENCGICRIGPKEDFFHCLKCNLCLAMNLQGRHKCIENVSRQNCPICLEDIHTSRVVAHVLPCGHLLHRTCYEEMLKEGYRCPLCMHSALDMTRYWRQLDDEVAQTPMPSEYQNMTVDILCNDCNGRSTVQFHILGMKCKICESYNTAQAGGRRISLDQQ

B. subtilis SsrA tag (peptide)
IC50: 470 nM
